Test results from patent US20030158387A1.
Like-named read-outs stand apart in the source and are kept apart here. Each block holds one binder with its values, some of them ahead of it. *: point of attachment. Nonanoyl = CCCCCCCCC(=O)*

How the values were obtained:
[1] = molecular target: chemokine receptor 1 (CCR1) (UniProt P56482)
[2] = molecular target: chemokine receptor 1 (CCR1) (UniProt P56482); assay: competition radioligand binding, membranes of CHO-K1 cells expressing CCR1, tracer [125I]-MIP-1 alpha
[3] = molecular target: chemokine receptor 1 (CCR1) (UniProt P56482); remark: listed apart in the source
[4] = molecular target: chemokine receptor 5 (CCR5) (human), P51681; assay: competition radioligand binding, membranes of CHO-K1 cells expressing CCR5, tracer [125I]-MIP-1 beta; mean ± SEM; conditions: remark: other sources report otherwise
chemokine receptor 5 (CCR5) (human), P51681, sequence (P51681 whole entry): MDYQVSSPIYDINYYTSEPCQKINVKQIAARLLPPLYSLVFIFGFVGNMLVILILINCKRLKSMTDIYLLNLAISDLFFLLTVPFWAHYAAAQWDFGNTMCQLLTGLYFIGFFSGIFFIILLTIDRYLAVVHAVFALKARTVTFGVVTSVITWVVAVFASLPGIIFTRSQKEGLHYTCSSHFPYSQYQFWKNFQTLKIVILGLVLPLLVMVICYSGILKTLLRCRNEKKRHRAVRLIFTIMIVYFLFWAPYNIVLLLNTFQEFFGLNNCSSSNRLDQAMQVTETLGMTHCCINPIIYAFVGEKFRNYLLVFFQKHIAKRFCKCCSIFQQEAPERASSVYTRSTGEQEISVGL

[5] = molecular target: chemokine receptor 5 (CCR5) (human), P51681; assay: competition radioligand binding, membranes of CHO-K1 cells expressing CCR5, tracer [125I]-MIP-1 beta; conditions: remark: other sources report otherwise
[6] = molecular target: chemokine receptor 1 (CCR1) (UniProt P56482); assay: cell-based or functional assay
[7] = molecular target: chemokine receptor 1 (CCR1) (UniProt P56482); assay: competition with 125I-RANTES, membranes of CHO-K1 cells expressing CCR1, filtration, one site competition model; 125I-Rantes tracer, CCR1 membranes
[8] = molecular target: chemokine receptor 1 (CCR1) (UniProt P56482); assay: competition with 125I-RANTES for binding to CCR1
[9] = molecular target: chemokine receptor 1 (CCR1) (UniProt P56482); assay: competition radioligand binding, membranes of CHO-K1 cells expressing CCR1, tracer [125I]-MIP-1 alpha; remark: listed apart in the source
[10] = molecular target: chemokine receptor 1 (CCR1) (UniProt P56482); remark: listed apart in the source
[11] = molecular target: chemokine receptor 1 (CCR1) (UniProt P56482); assay: competition radioligand binding on CCR1 (assay not given)

B1: HCC-1[8-74] (ligand)
chain: RGPYHPSECCFTYTTYKIPRQRIMDYYETNSQCSKPGIVFITKRGHSVCTNPSDKWVQDYIKDMKEN
EC50 (aequorin luminescence, CHO-K1 cells expressing CCR1) [1]: 35.2 nM

B2: HCC-1[7-74] (ligand)
chain: SRGPYHPSECCFTYTTYKIPRQRIMDYYETNSQCSKPGIVFITKRGHSVCTNPSDKWVQDYIKDMKEN
EC50 (aequorin luminescence, CHO-K1 cells expressing CCR1) [1]: 218 nM

B5: processed human chemokine PHC-1 (HCC-1[9-74]) (ligand)
chain: GPYHPSECCFTYTTYKIPRQRIMDYYETNSQCSKPGIVFITKRGHSVCTNPSDKWVQDYIKDMKEN
EC50 of receptor activation (aequorin assay) [6]: 2.8 nM
IC50 [7]: 2.3 nM
Ki [8]: 0.023 nM
EC50 (aequorin luminescence, CHO-K1 cells expressing CCR1) [1]: 2.62 nM
IC50 (read off the curve) [9]: 0.2 nM
EC50 (read off the curve) [10]: 2 nM

B8: HCC-1[10-74] (ligand)
chain: PYHPSECCFTYTTYKIPRQRIMDYYETNSQCSKPGIVFITKRGHSVCTNPSDKWVQDYIKDMKEN
IC50 (read off the curve) [2]: 0.1 nM
EC50 (aequorin luminescence, CHO-K1 cells expressing CCR1) [1]: 4.32 nM
IC50 (read off the curve) [9]: 0.2 nM
EC50 (read off the curve) [10]: 3 nM

The next lines start with the values.

IC50 (read off the curve) [2]: 0.1 nM
EC50 (read off the curve) [3]: 4 nM
EC50 (aequorin luminescence, CHO-K1 cells expressing CCR1) [1]: 5.9 nM
B3: NNY-HCC-1[10-74] (nonanoyl-HCC-1[10-74]) (ligand)
chain: Nonanoyl-PYHPSECCFTYTTYKIPRQRIMDYYETNSQCSKPGIVFITKRGHSVCTNPSDKWVQDYIKDMKEN
modifications: ends and bridges not checked

IC50 [4]: 0.116 nM
IC50 (read off the curve) [5]: 0.1 nM
B4: RANTES, P13501 24-91 (ligand, UniProt P13501 24-91, looked up)
chain: SPYSSDTTPCCFAYIARPLPRAHIKEYFYTSGKCSNPAVVFVTRKNRQVCANPEKKWVREYINSLEMS
modifications: ends and bridges not checked; also: 125I-labelled where used as tracer, unlabelled in functional assays

IC50 (read off the curve) [9]: 40 nM
B6: HCC-1[12-74] (ligand)
chemokine chain: HPSECCFTYTTYKIPRQRIMDYYETNSQCSKPGIVFITKRGHSVCTNPSDKWVQDYIKDMKEN

EC50 (aequorin luminescence, CHO-K1 cells expressing CCR1) [1]: 40.3 nM
B7: HCC-1[11-74] (ligand)
chain: YHPSECCFTYTTYKIPRQRIMDYYETNSQCSKPGIVFITKRGHSVCTNPSDKWVQDYIKDMKEN

EC50 (aequorin luminescence, CHO-K1 cells expressing CCR1) [1]: 262 nM
B9: HCC-1, residues 6-74 (ligand)
chain: SSRGPYHPSECCFTYTTYKIPRQRIMDYYETNSQCSKPGIVFITKRGHSVCTNPSDKWVQDYIKDMKEN

Ki [11]: 100 nM
B10: full size human chemokine HCC-1 (residues 1-74) (ligand)
chain: TKTESSSRGPYHPSECCFTYTTYKIPRQRIMDYYETNSQCSKPGIVFITKRGHSVCTNPSDKWVQDYIKDMKEN
